Patent US20240294646A1

How the values were obtained:
[1] = target: Soluble FcγRIIaR extracellular domain with C-terminal 10xHis tag (UniProt P12318); assay: SPR, antibody captured on HER2, receptor as analyte
[2] = target: Soluble FcγRIIb extracellular domain with C-terminal 10xHis tag (UniProt P31994); assay: as above
[3] = target: Soluble FcγRIIb extracellular domain with C-terminal 10xHis tag (UniProt P31994); assay: SPR; ratio of the fold for FcγRIIb to the fold for FcγRIIaR
[4] = target: Biotinylated FcγRIIb extracellular domain-Fc fusion (human IgG1 Fc L234A_L235A_D265S) (human) (UniProt P31994); assay: competition electrochemiluminescence (MSD), antibody on HER2-coated plate, biotinylated FcγRIIb-Fc; competitor FcγRIIaR-Fc
[5] = target: Soluble FcγRIIb extracellular domain with C-terminal 10×His tag (UniProt P31994); assay: SPR (Protocol 2); ratio of FcγRIIb fold to FcγRIIaR fold over wild-type
[6] = target: Soluble FcγRIIaR extracellular domain with C-terminal 10×His tag (UniProt P12318); assay: SPR (Protocol 2): full-size antibody captured on immobilised HER2, soluble receptor as analyte; fold over wild-type
[7] = target: Soluble FcγRIIb extracellular domain with C-terminal 10×His tag (UniProt P31994); assay: as above
[8] = target: Soluble FcγRIIb extracellular domain with C-terminal 10xHis tag (UniProt P31994); assay: SPR; IIb-Fold/IIaR-Fold (FcγRIIb against FcγRIIaR)
[9] = target: Soluble FcγRIIaR extracellular domain with C-terminal 10xHis tag (UniProt P12318); assay: SPR; fold change in affinity over wild-type v16463
[10] = target: Soluble FcγRIIb extracellular domain with C-terminal 10xHis tag (UniProt P31994); assay: SPR; fold change in affinity over wild-type v16463
[11] = target: Soluble FcγRIIaR extracellular domain with C-terminal 10xHis tag (UniProt P12318); assay: SPR (Biacore 4000), antibody captured on immobilised HER2, receptor as analyte
[12] = target: Soluble FcγRIIb extracellular domain with C-terminal 10xHis tag (UniProt P31994); assay: as above
[13] = target: Biotinylated FcγRIIb extracellular domain-Fc fusion (human IgG1 Fc with L234A_L235A_D265S) (human) (UniProt P31994); assay: competition electrochemiluminescence (MSD), antibody on coated HER2, biotinylated FcγRIIb-Fc with FcγRIIaR-Fc as competitor
[14] = target: Soluble FcγRIIaR extracellular domain with C-terminal 10×His tag (UniProt P12318); assay: SPR; KD ratio against wild-type v16463
[15] = target: Soluble FcγRIIb extracellular domain with C-terminal 10×His tag (UniProt P31994); assay: SPR; KD ratio against wild-type v16463
[16] = target: Soluble FcγRIIaR extracellular domain with C-terminal 10×His tag (UniProt P12318); assay: SPR, antibody captured on HER2 chip, receptor as analyte
[17] = target: Soluble FcγRIIb extracellular domain with C-terminal 10×His tag (UniProt P31994); assay: as above
[18] = target: Soluble FcγRIIb extracellular domain with C-terminal 10×His tag (UniProt P31994); assay: SPR; ratio of IIb-Fold to IIaR-Fold (FcγRIIb against FcγRIIaR)
[19] = target: Biotinylated FcγRIIb extracellular domain-Fc fusion (human IgG1 Fc with L234A_L235A_D265S) (human) (UniProt P31994); assay: competition electrochemiluminescence assay; antibody on HER2, biotinylated FcγRIIb-Fc, competitor FcγRIIaR-Fc
[20] = target: FcγRIIb (UniProt P31994); assay: SPR; IIb-Fold divided by IIaR-Fold, selectivity for FcγRIIb over FcγRIIaR relative to wild-type
[21] = target: FcγRIIIaF (UniProt P08637); assay: SPR, antibody captured on HER2 chip, receptor as analyte; fold change in affinity over wild-type
[22] = target: FcγRIIaH (UniProt P12318); assay: as above
[23] = target: FcγRIIaR (UniProt P12318); assay: as above
[24] = target: FcγRIIb (UniProt P31994); assay: as above
[25] = target: FcγRIa (UniProt P12314); assay: as above
[26] = target: Soluble FcγRIIaR extracellular domain with C-terminal 10×His tag (UniProt P12318); assay: SPR; KD of WT v16463 / KD of variant
[27] = target: Soluble FcγRIIb extracellular domain with C-terminal 10×His tag (UniProt P31994); assay: SPR; KD of WT v16463 / KD of variant
[28] = target: Soluble FcγRIIb extracellular domain with C-terminal 10×His tag (UniProt P31994); assay: SPR; IIb-Fold / IIaR-Fold (FcγRIIb against FcγRIIaR)
[29] = target: Soluble FcγRIIaR extracellular domain with C-terminal 10×His tag (UniProt P12318); assay: SPR (Biacore 4000), antibody captured on immobilised HER2, receptor as analyte
[30] = target: Soluble FcγRIIb extracellular domain with C-terminal 10×His tag (UniProt P31994); assay: as above
[31] = target: FcγRIIaR, soluble extracellular domain (UniProt P12318); assay: SPR; fold change in affinity over wild-type v16463
[32] = target: FcγRIIb, soluble extracellular domain (UniProt P31994); assay: SPR; fold change in affinity over wild-type v16463
[33] = target: FcγRIIb, soluble extracellular domain (UniProt P31994); assay: SPR; IIb-Fold/IIaR-Fold (FcγRIIb against FcγRIIaR), vs. wild-type v16463
[34] = target: FcγRIIaR, soluble extracellular domain (UniProt P12318); assay: SPR (General Methods Protocol 2): one-armed antibody captured on immobilised HER2, soluble receptor as analyte
[35] = target: FcγRIIb, soluble extracellular domain (UniProt P31994); assay: as above
[36] = target: FcγRI (UniProt P12314); assay: SPR (ProteOn XPR36), antibody captured on immobilized HER2, FcγR as analyte, equilibrium fit
[37] = target: FcγRIIIaV (UniProt P08637); assay: as above
[38] = target: FcγRIIaH (UniProt P12318); assay: as above
[39] = target: FcγRIIaR (UniProt P12318); assay: as above
[40] = target: FcγRIIb (UniProt P31994); assay: as above
[41] = target: FcγRIIaR (UniProt P12318); assay: SPR (Protocol 2, Biacore 4000), antibody captured on immobilised HER2, FcγR as analyte

Substance: Variant 27293 (strat1_control; Launching Module 1: A_G236N_G237A B_G236D_G237F_S239D_S267V_H268D_Template_1) (antibody)
- IIaR-Fold (affinity fold over WT v16463) [1]: 35.2 fold
- IIaR-Fold wrt Control (v27293) [1]: 1 fold
- Kd [1]: 8.8 nM
- IIb-Fold (affinity fold over WT v16463) [2]: 415 fold
- IIb-Fold wrt Control (v27293) [2]: 1 fold
- Kd [2]: 3.5 nM
- IIb Selectivity (IIb-Fold/IIaR-Fold) [3]: 11.8
- IIb Selectivity Fold wrt Control (v27293) [3]: 1 fold
- ELISA (% of non-competed FcγRIIb signal in presence of 10x FcγRIIa) [4]: 70.8%

Substance: Variant 22127, full-size antibody (FSA) format of v19540 (trastuzumab, heterodimeric IgG1 Fc; A: L234D_G236N_S267A / B: G236D_S239D_V266L_S267A_H268D)
- IIb/IIaR Selectivity (IIb-Fold/IIaR-Fold) [5]: 15.2
- IIaR-fold (fold change in affinity over wild-type) [6]: 1.6 fold
- IIb-fold (fold change in affinity over wild-type) [7]: 23.9 fold

Substance: v12, symmetrical E233D_G237D_P238D_H268D_P271G_A330R (IIb-specific comparator) (antibody)
- IIb Selectivity [8]: 80.5 fold
- IIaR-fold [9]: 1.4 fold
- IIb-Fold [10]: 112 fold
- Kd [11]: 220 nM
- Kd [12]: 13 nM
- ELISA (% of non-competed FcγRIIb signal in presence of 10x FcγRIIa) [13]: 100%

Substance: v12, IIb-specific comparator with symmetrical E233D_G237D_P238D_H268D_P271G_A330R (Mimoto et al. 2013), trastuzumab antibody
- IIaR-fold [14]: 1.4 fold
- IIb-Fold [15]: 112 fold
- Kd [16]: 220 nM
- Kd [17]: 13 nM
- IIb Selectivity (IIb-Fold/IIaR-Fold) [18]: 80.5 fold
- ELISA (% of non-competed FcγRIIb signal in presence of 10x FcγRIIa) [19]: 100%

Substance: v12 (IIb-specific comparator, symmetrical E233D_G237D_P238D_H268D_P271G_A330R) (antibody)
- IIaR-Fold (affinity fold over WT v16463) [1]: 1.4 fold
- Kd [1]: 220 nM
- IIb-Fold (affinity fold over WT v16463) [2]: 112 fold
- Kd [2]: 13 nM
- IIb Selectivity (IIb-Fold/IIaR-Fold) [3]: 80.5
- ELISA (% of non-competed FcγRIIb signal in presence of 10x FcγRIIa) [4]: 100%

Substance: v12 (OAA), IIb-specific comparator, trastuzumab one-armed antibody with symmetrical E233D_G237D_P238D_H268D_P271G_A330R
- IIb/IIaR Selectivity (ratio (IIb-Fold/IIaR-Fold)) [20]: 82.9
- FcγR Binding (Fold Change over WT) [21]: 0.1 fold over WT
- FcγR Binding (Fold Change over WT) [22]: 0.1 fold over WT
- FcγR Binding (Fold Change over WT) [23]: 1.4 fold over WT
- FcγR Binding (Fold Change over WT) [24]: 112 fold over WT
- FcγR Binding (Fold Change over WT) [25]: 0 fold over WT

Substance: Variant 22128, full-size antibody (FSA) format of v19585 (trastuzumab, heterodimeric IgG1 Fc; A: L234F_G236N_H268Q_K274Q_A327G_A330K_P331S / B: L234F_G236D_S239D_V266L_S267A_H268D_K274Q_A327G_A330S_P331S)
- IIb/IIaR Selectivity (IIb-Fold/IIaR-Fold) [5]: 11.3
- IIaR-fold (fold change in affinity over wild-type) [6]: 3.3 fold
- IIb-fold (fold change in affinity over wild-type) [7]: 37.4 fold

Substance: Variant 16463, wild-type one-armed trastuzumab antibody with heterodimeric IgG1 Fc
- IIaR-fold [26]: 1 fold
- IIb-Fold [27]: 1 fold
- IIb Selectivity [28]: 1 fold
- Kd [29]: 310 nM
- Kd [30]: 1400 nM

Substance: Variant 16463, wild-type one-armed trastuzumab antibody (OAA) with heterodimeric IgG1 Fc
- IIaR-Fold vs. WT [31]: 1 fold
- IIb-Fold vs. WT [32]: 1 fold
- IIb/IIaR Selectivity vs. WT [33]: 1 fold
- Kd [34]: 310 nM
- Kd [35]: 1400 nM

Substance: Variant 31522 (trastuzumab full-size antibody, electrostatic steering heterodimeric IgG1 Fc, no CH2 mutations; parental scaffold)
- Kd [36]: 0.071 nM
- Kd [37]: 1600 nM
- Kd [38]: 1530 nM
- Kd [39]: 2090 nM
- Kd [40]: 6340 nM

Substance: Variant 16463, wild-type one-armed antibody (Scaffold 2: one trastuzumab Fab and heterodimeric IgG1 Fc)
- Kd [41]: 360 nM

Substance: Variant 31509 (trastuzumab full-size antibody, Azymetric heterodimeric IgG1 Fc, no CH2 mutations; parental scaffold)
- Kd [36]: 0.067 nM
- Kd [37]: 1190 nM
- Kd [38]: 1150 nM
- Kd [39]: 1520 nM
- Kd [40]: 4200 nM
